Experimental findings from patent US20130115220A1, “METHOD FOR PREVENTION OR TREATMENT OF METABOLIC SYNDROME” (DAINIPPON SUMITOMO PHARMA CO., LTD., priority 2010, published 2013) are described below.

The target of series [1] is T1, FAS (Mus musculus, UniProt P19096). The experiment in a line: Co-immunoprecipitation of rAIM-HA and endogenous FAS in adipose tissue. It counts as binding. Details: endogenous. To be noted: adipose tissue of AIM-/- mice, 100 μg injected, 3 hr. On the procedure: rAIM labeled with HA-tag was directly injected to adipose tissue of AIM^−/− mice (at several points, 100 μg in total). After 3 hr, to confirm binding of rAIM-HA and endogenous FAS, co-immunoprecipitation by anti-HA antibody was performed using adipose tissue. The presence of FAS in the precipitate was analyzed by Western blotting (WB).

For series [2], the target named is T1, FAS. The experiment in a line: FAS activity of adipose tissue of AIM-/- mice after intraadipose topical injection. It is filed as in vivo. The arrangement: endogenous in cells; host or cells: 3T3-L1 adipocytes (treated cells, then lysed). The settings on record: AIM-/- mice fed HFD 20 weeks, rAIM injected into adipose 3 hr before, versus BSA. Here is the method: The influence of AIM on FAS activity of adipocyte or adipose tissue was examined. FAS activity was measured by the method of Kelley (Kelley et al., Biochem. J., 1986, 235:87-90) with slight modification. 3T3-L1 adipocytes, or lysates of adipose tissue of obese mice was mixed with acetyl-CoA and NADPH (0.2 M […] phosphate buffer [pH 7.0] containing 0.4 mM EDTA), and the mixture was placed in a spectrophotometer cuvette and maintained at 30° C. 20 μl of malonyl-CoA solution (0.2 mM) was added to start an enzyme reaction and decrease of OD was measured at a chart speed 2 cm/min. Based on the results, the enzyme activity of FAS was evaluated using the molar extinction coefficient of […] NADPH as 6220.
First, the FAS activity of 3T3-L1 cells treated for 6 days in the presence or absence of rAIM (5 μg/ml), and in the presence of C75 (25 μM) was measured. Moreover, the FAS activity of adipose tissues of AIM^+/+ mice and AIM^−/− mice and the FAS activity of adipose tissue of AIM^−/− mice administered with rAIM or BSA 3 hr before by intraadipose topical injection are shown in FIGS. 28 and 29, respectively.
All mice were fed with HFD for 20 weeks. The samples were dissolved (lysed) and the FAS activity was measured. The data was converted to that based on FAS protein, according to the results of WB performed using the same sample.

For series [3], the system named is 3T3-L1 cells. Nature of the series: rAIM uptake into 3T3-L1 cells by staining. It counts as cell-based, mouse. Here is the method: Differentiated 3T3-L1 cells (ins/DEX/IBMX stimulation (+)) and undifferentiated 3T3-L1 cells (ins/DEX/IBMX stimulation (−)) were incubated with rAIM (5 μg/ml) for 3 hr, and stained with AIM, PPARγ2, and DAPI. For staining with PPARγ2, a rabbit anti-PPARγ2 polyclonal antibody (Abcam plc) was used.
In addition, 3T3-L1 adipocytes were treated with rAIM for 3 hr, stained with AIM and endosome (FM 1-43FX (Invitrogen Corporation) was used), AIM and lysosome (Lyso Tracker Red DND-99 (Invitrogen Corporation) was used), and observed under a confocal microscope.

The subject of series [4] is AIM-/- mice. Nature of the series: Body weight and fat amount of HFD-fed AIM-/- mice. The settings on record: AIM-/- mice on HFD, intraperitoneal 300 μg/injection/mouse twice a week, 5 weeks, versus BSA. It counts as in vivo. On the procedure: Then, rAIM was intraperitoneally administered twice a week (n=6; 300 μg/injection/mouse) to AIM^−/− mice for 5 weeks while feeding with HFD, and the body weight and adipose tissue amount were measured.

Series [5] deals with AIM knockout mice. The experiment in a line: Macrophage infiltration into adipose tissue after systemic rAIM administration. It is filed as in vivo, mouse. To be noted: intravenous injection 50 μg/body/injection, 3 weeks. On the procedure: Then, rAIM was systemically administered to the AIM knockout mice by intravenous injection (50 μg/body/injection). After the administration was continued for 3 weeks, a section produced from the visceral fat tissue was stained with an anti-macrophage monoclonal antibody (F4/80).

The subject of series [6] is 3T3-L1 preadipocytes. The experiment in a line: Differentiation of 3T3-L1 preadipocytes into mature adipocytes, lipid droplet formation by oil-red-O. It is filed as cell-based. Here is the method:
To examine the function of AIM produced by macrophage that infiltrated into adipose tissue on the surrounding adipocytes, an experiment was performed to load AIM in the culture process for differentiation of 3T3-L1 preadipocytes into mature adipocytes.
As AIM, recombinant AIM protein (rAIM) of mouse was used. rAIM was prepared by culturing human-derived HEK293T cells transfected with a vector expressing mouse AIM (pCAGGS-mAIM-HA plasmid) in a serum-free medium (FreeStyle™ 293 Expression Medium; Invitrogen). rAIM was purified from the culture supernatant thereof using an anti-HA antibody column. In other Reference Examples shown below, AIM used was a similar rAIM protein. AIM was loaded by adding AIM to a culture medium at a concentration of 5 μg/ml.
In addition, differentiation of 3T3-L1 cells was induced as shown in FIG. 13 by first proliferating 3T3-L1 cells by cultivating for 4 days (day(−2)-day 2), after which cultivating in a culture medium containing insulin, dexamethasone (DEX) and isobutylmethylxanthine (IBMX) for 2 days (day 2-day 4) to start differentiation induction stimulation, and further cultivating in a culture medium containing insulin for 2 days (day 4-day 6).
After the differentiation induction stimulation period (day 2-day 6), the cells were continuously cultured in a culture medium free of such differentiation induction stimulation factors. Then, the cells on day 10 day from the start of the differentiation induction stimulation (day 12) were stained with oil-red-O, and the state of differentiation of 3T3-L1 cells into mature adipocytes was observed.

Series [7] has as its system CD36-/- mice. The experiment in a line: rAIM uptake into adipose tissue of CD36+/+ and CD36-/- mice. It is filed as in vivo. The settings on record: rAIM intravenous 300 μg/mouse, 16 hr. On the procedure:
Then, CD36^+/+ mice (wild-type) and CD36^−/− mice (Febbraio et al., J. Biol. Chem., 1999, 274:19055-19062) were intravenously injected with rAIM (300 μg/mouse in PBS), sacrificed 16 hr later, and a section was prepared from adipose tissue. AIM and macrophage F4/80 in the section were stained.

T1 sequence (P19096 whole entry): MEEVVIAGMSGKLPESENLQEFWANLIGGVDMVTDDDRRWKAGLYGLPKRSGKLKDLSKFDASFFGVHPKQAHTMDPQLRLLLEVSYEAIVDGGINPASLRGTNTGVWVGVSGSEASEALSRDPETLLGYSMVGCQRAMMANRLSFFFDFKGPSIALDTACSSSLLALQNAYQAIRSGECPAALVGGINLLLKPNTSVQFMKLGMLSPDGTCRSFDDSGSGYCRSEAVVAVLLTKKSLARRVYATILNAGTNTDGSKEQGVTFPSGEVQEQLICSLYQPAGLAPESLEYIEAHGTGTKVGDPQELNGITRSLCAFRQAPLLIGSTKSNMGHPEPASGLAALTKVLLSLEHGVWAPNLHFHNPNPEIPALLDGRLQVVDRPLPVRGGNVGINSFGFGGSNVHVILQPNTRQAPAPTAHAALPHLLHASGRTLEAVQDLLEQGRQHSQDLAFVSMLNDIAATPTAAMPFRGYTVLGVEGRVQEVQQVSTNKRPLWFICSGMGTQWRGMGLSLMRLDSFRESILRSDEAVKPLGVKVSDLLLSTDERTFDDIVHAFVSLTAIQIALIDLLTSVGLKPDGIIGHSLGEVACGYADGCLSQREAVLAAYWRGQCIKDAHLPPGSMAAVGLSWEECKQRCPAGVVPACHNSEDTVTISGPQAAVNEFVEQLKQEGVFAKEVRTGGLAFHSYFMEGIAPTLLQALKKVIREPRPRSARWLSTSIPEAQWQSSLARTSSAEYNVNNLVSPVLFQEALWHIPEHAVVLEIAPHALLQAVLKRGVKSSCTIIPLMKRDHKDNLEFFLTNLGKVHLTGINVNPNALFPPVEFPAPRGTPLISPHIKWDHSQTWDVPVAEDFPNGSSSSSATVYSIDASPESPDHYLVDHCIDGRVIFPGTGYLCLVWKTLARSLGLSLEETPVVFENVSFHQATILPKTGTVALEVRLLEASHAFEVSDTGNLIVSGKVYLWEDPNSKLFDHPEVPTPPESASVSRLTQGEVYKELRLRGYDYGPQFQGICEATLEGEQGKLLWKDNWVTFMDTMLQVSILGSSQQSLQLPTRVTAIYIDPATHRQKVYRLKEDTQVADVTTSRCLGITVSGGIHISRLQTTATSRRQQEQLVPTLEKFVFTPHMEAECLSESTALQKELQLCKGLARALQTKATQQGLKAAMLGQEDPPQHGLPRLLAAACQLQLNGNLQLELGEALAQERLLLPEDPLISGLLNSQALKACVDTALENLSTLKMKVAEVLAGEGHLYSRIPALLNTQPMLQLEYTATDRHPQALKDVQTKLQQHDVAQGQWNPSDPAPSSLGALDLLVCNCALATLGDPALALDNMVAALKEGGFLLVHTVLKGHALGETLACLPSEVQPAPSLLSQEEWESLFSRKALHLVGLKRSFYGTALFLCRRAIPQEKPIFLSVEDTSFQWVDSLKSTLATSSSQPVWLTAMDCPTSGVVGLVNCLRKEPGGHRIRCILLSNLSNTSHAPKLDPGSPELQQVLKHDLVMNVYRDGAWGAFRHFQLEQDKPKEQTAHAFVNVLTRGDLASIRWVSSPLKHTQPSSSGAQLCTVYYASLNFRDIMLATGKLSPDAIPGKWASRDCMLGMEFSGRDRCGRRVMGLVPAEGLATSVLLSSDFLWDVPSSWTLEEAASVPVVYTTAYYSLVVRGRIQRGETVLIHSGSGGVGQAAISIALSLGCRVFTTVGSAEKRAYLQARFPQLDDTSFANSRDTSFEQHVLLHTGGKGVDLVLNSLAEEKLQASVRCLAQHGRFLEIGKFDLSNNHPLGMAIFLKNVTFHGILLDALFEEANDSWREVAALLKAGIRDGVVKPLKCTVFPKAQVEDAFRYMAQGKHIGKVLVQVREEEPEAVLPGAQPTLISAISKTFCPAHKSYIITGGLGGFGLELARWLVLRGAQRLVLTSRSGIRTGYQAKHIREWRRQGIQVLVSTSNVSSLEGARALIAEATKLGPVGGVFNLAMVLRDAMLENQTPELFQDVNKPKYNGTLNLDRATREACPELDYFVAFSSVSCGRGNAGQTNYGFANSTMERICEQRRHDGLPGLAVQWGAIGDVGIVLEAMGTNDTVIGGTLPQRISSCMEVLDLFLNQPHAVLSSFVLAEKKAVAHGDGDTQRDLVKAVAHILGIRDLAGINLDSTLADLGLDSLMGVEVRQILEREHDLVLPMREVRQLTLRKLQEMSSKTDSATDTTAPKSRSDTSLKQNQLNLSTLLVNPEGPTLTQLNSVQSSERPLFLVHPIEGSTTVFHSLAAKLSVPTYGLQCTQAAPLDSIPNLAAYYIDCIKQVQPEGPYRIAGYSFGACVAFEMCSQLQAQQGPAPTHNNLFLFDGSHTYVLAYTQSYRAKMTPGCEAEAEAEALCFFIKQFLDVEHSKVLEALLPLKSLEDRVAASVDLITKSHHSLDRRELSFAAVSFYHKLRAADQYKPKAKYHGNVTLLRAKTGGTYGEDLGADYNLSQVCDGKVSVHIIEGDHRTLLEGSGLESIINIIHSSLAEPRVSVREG

B1: rAIM: recombinant AIM protein (rAIM) of mouse, HA-tagged, prepared in HEK293T cells (protein)
chain: ESPTKVQLVGGAHRCEGRVEVEHNGQWGTVCDDGWDRRDVAVVCRELNCGAVIQTPRGASYQPPASEQRVLIQGVDCNGTEDTLAQCELNYYVFDCSHEEDAGAQCENPDSDLLFIPEDVRLVDGPGHCQGRVEVLHQSQWSTVCKAGWNLQVSKVVCRQLGCGRALLTYGSCNKNTQGKGPIWMGKMSCSGQEANLRSCLLSRLENNCTHGEDTWMECEDPFELKLVGGDTPCSGRLEVLHKGSWGSVCDDNWGEKEDQVVCKQLGCGKSLHPSPKTRKIYGPGAGRIWLDDVNCSGKEQSLEFCRHRLWGYHDCTHKEDVEVICTDFDV
modifications: left off: small tags and cut ends
notes: recombinant AIM protein (rAIM) of mouse, HA-tagged, prepared in HEK293T cells
For the molecule B1, the “binding of rAIM-HA and endogenous FAS (co-immunoprecipitation, Western blotting)” value in series [1] was “coprecipitated”. Also, the “FAS activity in adipose tissue” value in series [2] is on record as “decreased”. Moreover, the “intracellular localization of incorporated rAIM (endosome, lysosome staining)” value in series [3] (3T3-L1 adipocytes, rAIM 3 hr, confocal microscope) was “co-localized with endosome”. In addition, in series [3] (cells showing low expression of PPARγ2, rAIM 5 μg/ml, 3 hr), the rAIM uptake efficiency entry is listed as “markedly low”. In addition, the “rAIM uptake (cells containing rAIM per 100 cells)” value in series [3] (mature adipocytes highly expressing PPARγ2, rAIM 5 μg/ml, 3 hr) is “efficient rAIM uptake”. Also, the rAIM uptake result in series [3] (preadipocytes free of differentiation induction stimulation, rAIM 5 μg/ml, 3 hr) was “no rAIM uptake”. In addition, in series [4], the “increase in body weight” value is “significantly small increase”, the “increase in subcutaneous fat” value is “significantly small increase” and the “increase in visceral fat” value is recorded as “significantly small increase”. Besides, the “infiltration of macrophages into adipose tissue (F4/80 staining of visceral fat section)” value in series [5] is given as “infiltration of macrophages into adipose tissue”. Besides, the differentiation suppressive effect result in series [6] (AIM concentration decreased to 1 μg/ml and 0.1 μg/ml) was “decreased”. The “differentiation of 3T3-L1 cells into adipocytes” value in series [6] (AIM continuously loaded day(-2)-day 12) is “completely suppressed”. Also, the “number of dead cells” value in series [6] (AIM loading on 3T3-L1 cells) was “did not increase”. The “differentiation of 3T3-L1 cells (cells having lipid droplet, oil-red-O, day 12)” value in series [6] (schedule B, AIM 5 μg/ml loaded day 2-day 12) was “nearly completely suppressed”. In series [6] (schedule C, AIM 5 μg/ml loaded only day 2-day 4), the “differentiation of 3T3-L1 cells (cells having lipid droplet, oil-red-O, day 12)” value is recorded as “nearly completely suppressed”. In addition, in series [6] (schedule D, AIM loaded only before differentiation induction, day(-2)-day 2), the “differentiation of 3T3-L1 cells into mature adipocytes” value is “not suppressed”. Moreover, the “AIM signal in adipocyte” value in series [7] is “markedly decreased”.
